From paper PMC8489356
pEC50: −log10 of the molar value. Where “and” joins values, the source holds several entries; their conditions need not be identical. Equal entries are not always repeated.

Columns and labels:
[1] = molecular target: His-tagged recombinant human prosaposin (PSAP) (human) (UniProt P07602); test: ELISA
[2] = molecular target: His-tagged recombinant human sortilin (human) (UniProt Q99523); test: ELISA
Chain of UniProt Q99523 (Q99523 78-755): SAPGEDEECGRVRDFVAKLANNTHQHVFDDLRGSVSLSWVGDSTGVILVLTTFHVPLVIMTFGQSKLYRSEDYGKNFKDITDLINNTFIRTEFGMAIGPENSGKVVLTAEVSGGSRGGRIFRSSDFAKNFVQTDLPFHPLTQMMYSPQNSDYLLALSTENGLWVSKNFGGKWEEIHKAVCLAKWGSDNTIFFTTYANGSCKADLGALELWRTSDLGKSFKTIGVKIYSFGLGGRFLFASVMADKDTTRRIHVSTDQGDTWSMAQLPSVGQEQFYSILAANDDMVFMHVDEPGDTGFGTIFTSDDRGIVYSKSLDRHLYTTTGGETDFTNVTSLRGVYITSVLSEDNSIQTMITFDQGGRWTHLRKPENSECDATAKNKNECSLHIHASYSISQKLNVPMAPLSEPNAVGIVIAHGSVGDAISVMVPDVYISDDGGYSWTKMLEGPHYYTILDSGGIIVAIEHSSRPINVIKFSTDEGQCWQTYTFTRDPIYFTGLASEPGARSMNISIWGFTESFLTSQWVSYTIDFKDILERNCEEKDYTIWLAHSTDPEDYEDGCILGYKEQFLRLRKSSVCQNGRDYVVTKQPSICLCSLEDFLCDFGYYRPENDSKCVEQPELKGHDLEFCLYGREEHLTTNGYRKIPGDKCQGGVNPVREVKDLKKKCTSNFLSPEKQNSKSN

Chain of UniProt P07602 (P07602 17-524): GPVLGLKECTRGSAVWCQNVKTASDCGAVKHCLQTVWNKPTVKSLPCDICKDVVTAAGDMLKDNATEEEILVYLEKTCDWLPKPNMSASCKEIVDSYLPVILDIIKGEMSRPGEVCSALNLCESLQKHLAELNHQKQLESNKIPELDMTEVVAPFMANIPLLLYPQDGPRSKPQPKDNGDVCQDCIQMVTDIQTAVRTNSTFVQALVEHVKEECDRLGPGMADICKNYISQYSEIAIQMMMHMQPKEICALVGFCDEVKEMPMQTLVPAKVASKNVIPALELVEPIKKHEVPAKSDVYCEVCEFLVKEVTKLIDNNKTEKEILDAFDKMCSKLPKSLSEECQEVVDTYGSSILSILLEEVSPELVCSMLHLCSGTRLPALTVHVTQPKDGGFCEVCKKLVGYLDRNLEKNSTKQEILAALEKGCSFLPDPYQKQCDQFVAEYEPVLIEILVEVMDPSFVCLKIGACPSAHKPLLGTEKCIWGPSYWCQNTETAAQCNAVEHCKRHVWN

Substance | pEC50 [1] | pEC50 [2]
Fc:PGRN (huPGRN fused to a normal Fc) (Fc fusion) | 8.94 and 8.41 | 8.74 and 9.51
protein transport vehicle:PGRN (PTV:PGRN), expressed in Expi293 cells (Fc fusion) | 8.76 and 8.29 | 8.66 and 9.33
